In patent US20190248900A1 (Y BIOLOGICS, published 2019):
Changes are numbered by the printed parent chain.

B1: PD1-41C9 (antibody, V domains shown)
VH: QMQLVESGGGVVQPGRSLRLSCAASGFTFSSYAMHWVRQAPGKGLEWVAVISYDGSNKYYADSVKGRFTISRDNSKNTLYLQMNRLRSEDTAVYYCTTTTFDSWGQGTLITVSS
VL: DIVMTQTPLSLPVTPGEAASISCRSSQSLLDSEDGNTYLDWYLQKPGQSPQLLIYTLSHRASGVPDRFSGSGSGTDFTLKISRVAAEDVGLYYCLQRMGFPYTFGQGTKLDIK
notes: scFv-phage in the screening ELISA; whole IgG in the other assays
B2: PD1-49A2 (antibody, V domains shown)
VH: B1 VH with M2V, S75P, R85S, S88A, Q106R, I110V
VL: B1 VL with T7S, A18P, L30F, E33D, A85E, L91I, L110V, D111E
notes: scFv-phage in the screening ELISA; whole IgG in the other assays; also called Parent 49A2
B3: PD1-45D6 (antibody, V domains shown)
VH: QVQLVESGGGVVQPGRSLRLSCAASGFTFSSYAMHWVRQVPGKGLEWVAVISYDGNDKYYADSVKGRFTISRDNSKNTLYLQMNSLRAEDTAVYYCVPTTFEYWGQGSQVTVSS
VL: DIVMTQTPLSLPVTPGEAASISCRSSQSLLDSDDGKTYLDWYLQKPGQSPQLLIYTLSYRASGVPDRFSGSGSGTEFNLRISRVEAEDVGIYYCMQRVEFPFTFGQGTKLDIK
notes: as for B1

Target: T1, DKK1 (Homo sapiens (Human), UniProt O94907 32-266)
T1 sequence: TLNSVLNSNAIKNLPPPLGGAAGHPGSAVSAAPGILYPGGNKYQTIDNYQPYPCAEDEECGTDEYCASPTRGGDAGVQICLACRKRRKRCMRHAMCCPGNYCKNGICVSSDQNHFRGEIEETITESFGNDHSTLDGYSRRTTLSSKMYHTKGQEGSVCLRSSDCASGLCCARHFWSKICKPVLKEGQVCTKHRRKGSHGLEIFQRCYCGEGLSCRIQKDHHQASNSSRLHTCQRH
Experiment: ELISA

Does B1 bind?
Result: no binding (tested: 1 ug/ml)

Does B2 bind?
Result: no binding (tested: 1 ug/ml)

Does B3 bind?
Result: no binding (tested: 1 ug/ml)

Target: T2, DMP1 (Homo sapiens (Human), UniProt Q13316 17-513)
T2 sequence: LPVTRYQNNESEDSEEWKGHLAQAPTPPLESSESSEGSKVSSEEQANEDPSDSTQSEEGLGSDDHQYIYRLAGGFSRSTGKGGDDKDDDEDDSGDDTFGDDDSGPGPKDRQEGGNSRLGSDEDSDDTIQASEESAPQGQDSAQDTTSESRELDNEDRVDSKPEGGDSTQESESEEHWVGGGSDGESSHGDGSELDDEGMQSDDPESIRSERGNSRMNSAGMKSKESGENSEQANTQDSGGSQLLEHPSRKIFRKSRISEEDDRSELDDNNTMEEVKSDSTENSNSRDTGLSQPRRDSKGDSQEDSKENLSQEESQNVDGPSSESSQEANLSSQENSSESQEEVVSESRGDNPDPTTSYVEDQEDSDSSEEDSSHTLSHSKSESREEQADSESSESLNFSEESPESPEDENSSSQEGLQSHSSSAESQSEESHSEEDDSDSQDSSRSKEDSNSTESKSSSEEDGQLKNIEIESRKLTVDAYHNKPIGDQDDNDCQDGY
Experiment: ELISA

Does B1 bind?
Result: no binding (tested: 1 ug/ml)

Does B2 bind?
Result: no binding (tested: 1 ug/ml)

Does B3 bind?
Result: no binding (tested: 1 ug/ml)

Target: T3, OGN (Homo sapiens (Human), UniProt P20774 21-298)
T3 sequence: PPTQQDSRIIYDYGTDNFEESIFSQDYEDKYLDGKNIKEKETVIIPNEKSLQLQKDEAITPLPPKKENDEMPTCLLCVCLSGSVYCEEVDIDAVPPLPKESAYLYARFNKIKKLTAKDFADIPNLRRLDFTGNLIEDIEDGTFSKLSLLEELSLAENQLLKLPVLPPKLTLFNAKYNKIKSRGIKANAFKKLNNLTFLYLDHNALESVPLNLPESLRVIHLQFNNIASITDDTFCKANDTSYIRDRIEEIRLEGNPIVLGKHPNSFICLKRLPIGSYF
Experiment: ELISA

Does B1 bind?
Result: no binding (tested: 1 ug/ml)

Does B2 bind?
Result: no binding (tested: 1 ug/ml)

Does B3 bind?
Result: no binding (tested: 1 ug/ml)

Target: T4, RAET1E (Homo sapiens (Human), UniProt Q8TD07 31-225)
T4 sequence: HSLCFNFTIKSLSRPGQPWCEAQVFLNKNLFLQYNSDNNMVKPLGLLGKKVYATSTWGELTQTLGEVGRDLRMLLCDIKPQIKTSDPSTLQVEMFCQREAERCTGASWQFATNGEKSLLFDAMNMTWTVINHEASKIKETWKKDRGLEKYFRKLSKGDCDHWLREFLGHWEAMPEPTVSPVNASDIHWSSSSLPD
Experiment: ELISA

Does B1 bind?
Result: no binding (tested: 1 ug/ml)

Does B2 bind?
Result: no binding (tested: 1 ug/ml)

Does B3 bind?
Result: no binding (tested: 1 ug/ml)

Target: LRRN1 (Homo sapiens (Human), UniProt Q6UXK5 26-631)
Experiment: ELISA

Chain of LRRN1 (Q6UXK5 26-631 limits assumed): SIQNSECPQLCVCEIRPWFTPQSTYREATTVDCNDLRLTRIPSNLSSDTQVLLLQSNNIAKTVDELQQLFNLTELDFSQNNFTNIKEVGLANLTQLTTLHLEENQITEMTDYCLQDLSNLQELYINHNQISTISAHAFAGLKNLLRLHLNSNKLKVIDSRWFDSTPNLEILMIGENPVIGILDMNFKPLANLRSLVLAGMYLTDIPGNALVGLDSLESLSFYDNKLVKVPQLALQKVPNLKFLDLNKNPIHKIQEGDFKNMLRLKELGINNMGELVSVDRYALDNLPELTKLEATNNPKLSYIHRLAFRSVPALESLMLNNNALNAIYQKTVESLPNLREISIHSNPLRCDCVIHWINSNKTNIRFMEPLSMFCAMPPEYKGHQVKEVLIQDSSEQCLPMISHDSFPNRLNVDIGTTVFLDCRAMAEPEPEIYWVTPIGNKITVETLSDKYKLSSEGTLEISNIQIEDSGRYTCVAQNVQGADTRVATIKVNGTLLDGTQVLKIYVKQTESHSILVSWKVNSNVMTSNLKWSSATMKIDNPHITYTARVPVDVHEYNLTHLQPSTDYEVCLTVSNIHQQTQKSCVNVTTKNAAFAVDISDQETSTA

Does B1 bind?
Result: no binding (tested: 1 ug/ml)

Does B2 bind?
Result: no binding (tested: 1 ug/ml)

Does B3 bind?
Result: no binding (tested: 1 ug/ml)

Target: T5, NBL1 (Homo sapiens (Human), UniProt P41271 17-181)
T5 sequence: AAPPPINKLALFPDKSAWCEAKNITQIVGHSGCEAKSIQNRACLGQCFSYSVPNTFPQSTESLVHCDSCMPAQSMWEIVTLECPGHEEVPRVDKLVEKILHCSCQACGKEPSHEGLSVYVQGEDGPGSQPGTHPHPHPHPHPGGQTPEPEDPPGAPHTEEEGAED
Experiment: ELISA

Does B1 bind?
Result: no binding (tested: 1 ug/ml)

Does B2 bind?
Result: no binding (tested: 1 ug/ml)

Does B3 bind?
Result: no binding (tested: 1 ug/ml)

Target: T6, ULBP1 (Homo sapiens (Human), UniProt Q9BZM6 26-216)
T6 sequence: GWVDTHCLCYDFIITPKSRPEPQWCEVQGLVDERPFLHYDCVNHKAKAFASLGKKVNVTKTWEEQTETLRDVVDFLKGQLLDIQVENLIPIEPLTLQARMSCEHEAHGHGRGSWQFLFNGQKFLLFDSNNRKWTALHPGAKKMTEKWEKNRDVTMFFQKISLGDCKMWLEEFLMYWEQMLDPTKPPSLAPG
Experiment: ELISA

Does B1 bind?
Result: no binding (tested: 1 ug/ml)

Does B2 bind?
Result: no binding (tested: 1 ug/ml)

Does B3 bind?
Result: no binding (tested: 1 ug/ml)

Target: T7, WIF1 (Homo sapiens (Human), UniProt Q9Y5W5 29-379)
T7 sequence: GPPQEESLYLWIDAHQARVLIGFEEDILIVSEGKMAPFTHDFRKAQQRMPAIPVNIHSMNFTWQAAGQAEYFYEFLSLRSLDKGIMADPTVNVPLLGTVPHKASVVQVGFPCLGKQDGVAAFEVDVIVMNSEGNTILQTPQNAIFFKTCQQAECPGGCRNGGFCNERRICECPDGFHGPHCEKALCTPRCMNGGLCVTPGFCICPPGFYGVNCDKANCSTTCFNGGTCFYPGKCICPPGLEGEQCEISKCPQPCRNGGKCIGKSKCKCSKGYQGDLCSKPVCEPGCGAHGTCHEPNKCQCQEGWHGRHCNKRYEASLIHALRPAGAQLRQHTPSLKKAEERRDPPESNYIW
Experiment: ELISA

Does B1 bind?
Result: no binding (tested: 1 ug/ml)

Does B2 bind?
Result: no binding (tested: 1 ug/ml)

Does B3 bind?
Result: no binding (tested: 1 ug/ml)

Target: T8, DKK4 (Homo sapiens (Human), UniProt Q9UBT3 19-224)
T8 sequence: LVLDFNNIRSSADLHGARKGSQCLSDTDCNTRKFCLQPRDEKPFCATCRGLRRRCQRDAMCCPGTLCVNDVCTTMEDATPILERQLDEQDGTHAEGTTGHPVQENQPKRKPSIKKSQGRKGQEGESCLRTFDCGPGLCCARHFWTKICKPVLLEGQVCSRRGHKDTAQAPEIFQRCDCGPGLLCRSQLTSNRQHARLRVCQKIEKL
Experiment: ELISA

Does B1 bind?
Result: no binding (tested: 1 ug/ml)

Does B2 bind?
Result: no binding (tested: 1 ug/ml)

Does B3 bind?
Result: no binding (tested: 1 ug/ml)
